The test addresses E-Syt2 C2B domain (within the E-syt2 C2AB construct, 343-646, C611S) (human). As to the kind of experiment: single-molecule force spectroscopy (optical tweezers); the two C2 domains stand on one chain (C2AB); N-terminus held by biotin-streptavidin on a bilayer-coated silica bead or a streptavidin-coated bead, C-terminus on a DNA handle to a polystyrene bead; pulled at 10 nm/s or held at constant trap separation; 25 mM HEPES pH 7.4, 200 mM NaCl, 100 uM Ca2+, room temperature (~23 C).

“E-Syt2 C2A domain (within the E-syt2 C2AB construct, 343-646, C611S) (domain or fragment)” had a force at which the two domains dissociate of 8 to 13 pN; a force of reversible dissociation and re-association of 11 pN.

The record behind these values is publication PMC5690283.
